Measured values reported in patent US20120045438A1 (Janssen / Centocor, published 2012).
Substitutions are numbered along the chain they refer to. Names and notes keep the numbering of the source. Values joined by “and” are separate entries in the source; they are usually repeats but may differ in a detail not shown here. Equal entries are not always repeated.

B1: Lc14Hc2 (antibody, V domains shown)
VH: QVTLKESGPVLVKPTETLTLTCTVSGFSLSTYGMGVGWIRQPPGKALEWLAHIWWDDVKRYNPALKSRLTISKDTSKSQVVLTMTNMDPVDTATYYCARMGSDYDVWFDYWGQGTLVTVSS
VL: DIQMTQSPSTLSASVGDRVTITCRASKSISKYLAWYQQKPGKAPKLLIYSGSTLQSGVPSRFSGSGSGTEFTLTISSLQPDDFATYYCQQHNEYPYTFGGGTKVEIK
B2: Lc8Hc2 (antibody, V domains shown)
VH: B1 VH
VL: B1 VL with G100Q, K103R, V104L
B3: Lc3Hc2 (antibody, V domains shown)
VH: B1 VH
VL: B1 VL with D1A, M4L, T10S, E70D, D81E
B4: Lc2Hc2 (antibody, V domains shown)
VH: B1 VH
VL: B1 VL with T10S, E70D, D81E, G100Q, V104L
B5: mAb Lc-2B03 with Hc2 M34S, M100L, V106I (antibody, V domains shown)
VH: B1 VH with M34S, M100L, V106I
VL: EIVLTQSPATLSLSPGERATLSCRASKSISKYLAWYQQKPGQAPRLLIYSGSTLQSGIPARFSGSGSGTDFTLTISSLEPEDFAVYYCQQHDYPYTFGQGTKLEIK
notes: full-length mAb; both are written under this molecule
B6: mAb Lc-2B03 with Hc2 T31S, M34V, M100L (antibody, V domains shown)
VH: B1 VH with T31S, M34V, M100L
VL: B5 VL
notes: full-length mAb, made in HEK293 and CHO
B7: mAb Lc-2B03 with Hc2 M34Q, M100L (antibody, V domains shown)
VH: B1 VH with M34Q, M100L
VL: B5 VL
notes: as for B6
B8: mAb Lc-2B03 with Hc2 M34E, M100L, V106I (antibody, V domains shown)
VH: B1 VH with M34E, M100L, V106I
VL: B5 VL
notes: full-length mAb
B9: mAb Lc-2B03 with Hc2 T31S, M34S, M100L, V106I (antibody, V domains shown)
VH: B1 VH with T31S, M34S, M100L, V106I
VL: B5 VL
notes: as for B6
B10: mAb Lc-2B03 with Hc2 T31S, M34S, M100L (antibody, V domains shown)
VH: B1 VH with T31S, M34S, M100L
VL: B5 VL
notes: as for B6
B11: mAb Lc-2B03 with Hc2 M34S, M100L (antibody, V domains shown)
VH: B1 VH with M34S, M100L
VL: B5 VL
notes: as for B6
B12: mAb Lc-2B03 with Hc2 M34V, M100L, V106I (antibody, V domains shown)
VH: B1 VH with M34V, M100L, V106I
VL: B5 VL
notes: full-length mAb
B13: Lc3Hc6 (antibody, V domains shown)
VH: QVQLVESGGGVVQPGRSLRLSCAASGFSLSTYGMGVGWVRQAPGKGLEWVAHIWWDDVKRYNPALKSRFTISRDNSKNTLYLQMNSLRAEDTAVYYCARMGSDYDVWFDYWGQGTLVTVSS
VL: B1 VL with D1A, M4L, T10S, E70D, D81E
B14: Lc7Hc6 (antibody, V domains shown)
VL: B1 VL with M4L, T10S, Q37R, A43V, E70D, D81E, F83V, C88G, G100Q, V104L
VH: B13 VH
B15: Lc15Hc2 (antibody, V domains shown)
VH: B1 VH
VL: B1 VL with D1V, Q3W, T10L, V15T, T22S, K45E, E70D, S77C, P80S, D81E
B16: Lc7Hc1 (antibody, V domains shown)
VL: B1 VL with M4L, T10S, Q37R, A43V, E70D, D81E, F83V, C88G, G100Q, V104L
VH: B1 VH with V10A, E16Q, V24F, S78N
B17: Lc15Hc1 (antibody, V domains shown)
VH: B1 VH with V10A, E16Q, V24F, S78N
VL: B1 VL with D1V, Q3W, T10L, V15T, T22S, K45E, E70D, S77C, P80S, D81E
B18: Lc10Hc2 (antibody, V domains shown)
VH: B1 VH
VL: B1 VL with M4L, T10F, D81E
B19: Lc11Hc2 (antibody, V domains shown)
VH: B1 VH
VL: B1 VL with D1A, Q3R, T10S, L11F, V15T, E70D, S77C, P80S, D81E
B20: Lc5Hc2 (antibody, V domains shown)
VH: B1 VH
VL: B1 VL with M4L, T10F, D81E, G100Q
B21: Lc4Hc2 (antibody, V domains shown)
VH: B1 VH
VL: B1 VL with T10S, L46R, D81E
B22: Lc12Hc1 (antibody, V domains shown)
VH: B1 VH with V10A, E16Q, V24F, S78N
VL: B1 VL with T10S, G41E, L46S, E70D, D81E
B23: Fab clone 3G05 (IL-13-62 library) (Fab, V domains shown)
VH: B1 VH
VL: EIVLTQSPATLSLSPGERATLSCRASKSISKYLAWYQQKPGQAPRLLIYSGSTLQSGIPARFSGSGSGTDFTLTISSLEPEDFAVYYCQQPLDSPYTFGQGTKLEIK
notes: Fab on phage pIX
B24: Fab clone 4D01 (IL-13-62 library) (Fab, V domains shown)
VH: B1 VH
VL: B23 VL with S94V
notes: Fab on phage pIX
B25: Fab clone 4B10 (IL-13-62 library) (Fab, V domains shown)
VH: B1 VH
VL: B23 VL with P91H, L92F, D93W, S94G
notes: Fab on phage pIX
B26: Fab clone 3H12 (IL-13-62 library) (Fab, V domains shown)
VH: B1 VH
VL: B23 VL with P91H, L92D, D93S, S94G
notes: Fab on phage pIX
B27: Fab clone 4F07 (IL-13-62 library) (Fab, V domains shown)
VH: B1 VH
VL: B23 VL with L92I, S94A
notes: Fab on phage pIX

Each binder was assayed against T1, human IL-13 R130Q variant (R110Q of the mature chain) (human, UniProt P35225 35-146, Biotinylated on amines (NHS-LC-biotin, 4:1) in ELISA, panning and competition assays. The letters are unchanged.) (assay: SPR (Biacore), purified mAb from HEK293).
T1 construct: R130Q counts from Met 1 of the signal peptide, R110Q on the mature chain; Bought from Peprotech; also called IL-13 R110Q; b-R130Q

| Binder | Kd [pM] |
| --- | --- |
| B1 | 256 |
| B2 | 272 |
| B3 | 246 |
| B4 | 365 |

These binders were tested against T2, human wild-type IL-13 (mature chain) (human, UniProt P35225 35-146, Biotinylated on amines (NHS-LC-biotin) in the competition assays. The letters are unchanged.) (assay: Luminex competition, inhibition of 500 pg/ml biotinylated wt IL-13 binding to IL-13Ra2).
T2 construct: wild type has R at 110; Bought (Peprotech, R&D Systems); also called wt IL-13; IL-13-WT

| Binder | IC50 [ng/mL] |
| --- | --- |
| B5 | 2.25 |
| B6 | 1.75 |
| B7 | 1.71 |
| B8 | 2.54 |
| B9 | 1.68 |
| B10 | 1.72 |

Each binder was assayed against T1, human IL-13 R130Q variant (R110Q of the …) (assay: SPR (Biacore), mAb made in HEK293).

| Binder | Kd |
| --- | --- |
| B11 | 1.4 pM |
| B5 | 20.5 pM and 20.9 pM |
| B6 | 3.7 pM |
| B7 | 24.3 pM |
| B12 | 25.2 pM |
| B8 | 11.4 pM |
| B9 | 15.2 pM |
| B10 | 12.3 pM |

Each binder was assayed against T1, human IL-13 R130Q variant (R110Q of the …) (assay: direct binding ELISA, mAb captured by anti-human Fc, biotinylated IL-13 R130Q, crude supernatant;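 note: 100% is the positive control mAb signal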).

| Binder | Percent IL-13 R130Q (30 ng/ml) Binding [%] |
| --- | --- |
| B13 | 26.6 |
| B14 | -0.3 |
| B15 | 94.8 |
| B16 | -1.4 |
| B17 | 76.2 |
| B1 | 91.8 |
| B18 | 78.9 |
| B2 | 81.1 |
| B19 | 92.2 |
| B20 | 85.9 |
| B21 | 84.7 |
| B22 | 36.4 |
| B3 | 85.3 |
| B4 | 84 |

These binders were tested against T1, human IL-13 R130Q variant (R110Q of the …) (assay: SPR (Biacore), mAb made in CHO).

| Binder | Kd [pM] |
| --- | --- |
| B11 | 18.4 |
| B6 | 5.8 |
| B7 | 25.1 |
| B9 | 21.1 |
| B10 | 10.1 |

Each binder was assayed against T2, human wild-type IL-13 (mature chain) (assay: cell-based or functional assay).

| Binder | P-STAT6 EC50 [ng/mL] |
| --- | --- |
| B5 | 1.1 |
| B6 | 0.59 |
| B7 | 0.87 |
| B8 | 1.79 |
| B9 | 0.65 |
| B10 | 0.59 |

What follows are binders tested against T1, human IL-13 R130Q variant (R110Q of the …) (assay: competition ELISA, biotinylated IL-13 R130Q binding to plate-bound IL-13Ra2, crude supernatant).

| Binder | Percent Inhibition IL-13 R130Q (333 ng/ml) to Ra2 [%] |
| --- | --- |
| B13 | 14 |
| B14 | 4 |
| B15 | 61 |
| B16 | 6 |
| B17 | 44 |
| B1 | 54 |
| B18 | 57 |
| B2 | 55 |
| B19 | 51 |
| B20 | 57 |
| B21 | 55 |
| B22 | 26 |
| B3 | 50 |
| B4 | 52 |

What follows are binders tested against T1, human IL-13 R130Q variant (R110Q of the …) (assay: single-point (10 nM) phage Fab ELISA on biotinylated IL-13 R130Q).

| Binder | Signal (% of Lc16Hc7) [%] |
| --- | --- |
| B23 | 108 |
| B24 | 140 |
| B25 | 117 |
| B26 | 120 |
| B27 | 116 |
